The target in assay [1] is human voltage-gated sodium channel Nav1.4 (human) (UniProt P35499). The experiment in a line: cell-based or functional assay.
For assay [2], the target named is human voltage-gated sodium channel Nav1.3 (human) (UniProt Q9NY46). The experiment in a line: cell-based or functional assay.
For assay [3], the target named is human voltage-gated sodium channel Nav1.7 (human) (UniProt Q15858). Description: cell-based or functional assay.
Assay [4] has as its target human voltage-gated sodium channel Nav1.5 (human) (UniProt Q14524). The experiment in a line: cell-based or functional assay.
The target in assay [5] is TTX-sensitive Nav channels in mouse DRG neuron. Description: cell-based or functional assay.
For assay [6], the target named is human voltage-gated sodium channel Nav1.4 (human) (UniProt P35499). The experiment in a line: cell-based or functional assay. This is another data set of the same source.
Assay [7] has as its target human voltage-gated sodium channel Nav1.3 (human) (UniProt Q9NY46). Description: cell-based or functional assay. This is another data set of the same source.
Assay [8] concerns the target human voltage-gated sodium channel Nav1.7 (human) (UniProt Q15858). Description: cell-based or functional assay. The source holds these as a separate data set.
Assay [9] has as its target human voltage-gated sodium channel Nav1.5 (human) (UniProt Q14524). The experiment in a line: cell-based or functional assay. The source holds these as a separate data set.
Assay [10] concerns the target TTX-resistant Nav channels in mouse DRG neurons. Description: cell-based or functional assay.
Assay [11] addresses TTX-sensitive Nav channels in mouse DRG neurons. Description: cell-based or functional assay.
Assay [12] deals with human voltage-gated sodium channel Nav1.8 (human) (UniProt Q9Y5Y9). The experiment in a line: cell-based or functional assay.
Assay [13] has as its target human voltage-gated sodium channel Nav1.8 (human), Q9Y5Y9. Particulars: chains peptide; modification not given.

The results in this text go back to US20150023988A1.

“And” between values parts separate entries of the source, which are not always exact repeats. Equal entries are not always repeated. Where two headings read alike, the source gives them in different places. Bounds are passed on as bounds.

Chain of human voltage-gated sodium channel Nav1.8 (human) (Q9Y5Y9 whole entry): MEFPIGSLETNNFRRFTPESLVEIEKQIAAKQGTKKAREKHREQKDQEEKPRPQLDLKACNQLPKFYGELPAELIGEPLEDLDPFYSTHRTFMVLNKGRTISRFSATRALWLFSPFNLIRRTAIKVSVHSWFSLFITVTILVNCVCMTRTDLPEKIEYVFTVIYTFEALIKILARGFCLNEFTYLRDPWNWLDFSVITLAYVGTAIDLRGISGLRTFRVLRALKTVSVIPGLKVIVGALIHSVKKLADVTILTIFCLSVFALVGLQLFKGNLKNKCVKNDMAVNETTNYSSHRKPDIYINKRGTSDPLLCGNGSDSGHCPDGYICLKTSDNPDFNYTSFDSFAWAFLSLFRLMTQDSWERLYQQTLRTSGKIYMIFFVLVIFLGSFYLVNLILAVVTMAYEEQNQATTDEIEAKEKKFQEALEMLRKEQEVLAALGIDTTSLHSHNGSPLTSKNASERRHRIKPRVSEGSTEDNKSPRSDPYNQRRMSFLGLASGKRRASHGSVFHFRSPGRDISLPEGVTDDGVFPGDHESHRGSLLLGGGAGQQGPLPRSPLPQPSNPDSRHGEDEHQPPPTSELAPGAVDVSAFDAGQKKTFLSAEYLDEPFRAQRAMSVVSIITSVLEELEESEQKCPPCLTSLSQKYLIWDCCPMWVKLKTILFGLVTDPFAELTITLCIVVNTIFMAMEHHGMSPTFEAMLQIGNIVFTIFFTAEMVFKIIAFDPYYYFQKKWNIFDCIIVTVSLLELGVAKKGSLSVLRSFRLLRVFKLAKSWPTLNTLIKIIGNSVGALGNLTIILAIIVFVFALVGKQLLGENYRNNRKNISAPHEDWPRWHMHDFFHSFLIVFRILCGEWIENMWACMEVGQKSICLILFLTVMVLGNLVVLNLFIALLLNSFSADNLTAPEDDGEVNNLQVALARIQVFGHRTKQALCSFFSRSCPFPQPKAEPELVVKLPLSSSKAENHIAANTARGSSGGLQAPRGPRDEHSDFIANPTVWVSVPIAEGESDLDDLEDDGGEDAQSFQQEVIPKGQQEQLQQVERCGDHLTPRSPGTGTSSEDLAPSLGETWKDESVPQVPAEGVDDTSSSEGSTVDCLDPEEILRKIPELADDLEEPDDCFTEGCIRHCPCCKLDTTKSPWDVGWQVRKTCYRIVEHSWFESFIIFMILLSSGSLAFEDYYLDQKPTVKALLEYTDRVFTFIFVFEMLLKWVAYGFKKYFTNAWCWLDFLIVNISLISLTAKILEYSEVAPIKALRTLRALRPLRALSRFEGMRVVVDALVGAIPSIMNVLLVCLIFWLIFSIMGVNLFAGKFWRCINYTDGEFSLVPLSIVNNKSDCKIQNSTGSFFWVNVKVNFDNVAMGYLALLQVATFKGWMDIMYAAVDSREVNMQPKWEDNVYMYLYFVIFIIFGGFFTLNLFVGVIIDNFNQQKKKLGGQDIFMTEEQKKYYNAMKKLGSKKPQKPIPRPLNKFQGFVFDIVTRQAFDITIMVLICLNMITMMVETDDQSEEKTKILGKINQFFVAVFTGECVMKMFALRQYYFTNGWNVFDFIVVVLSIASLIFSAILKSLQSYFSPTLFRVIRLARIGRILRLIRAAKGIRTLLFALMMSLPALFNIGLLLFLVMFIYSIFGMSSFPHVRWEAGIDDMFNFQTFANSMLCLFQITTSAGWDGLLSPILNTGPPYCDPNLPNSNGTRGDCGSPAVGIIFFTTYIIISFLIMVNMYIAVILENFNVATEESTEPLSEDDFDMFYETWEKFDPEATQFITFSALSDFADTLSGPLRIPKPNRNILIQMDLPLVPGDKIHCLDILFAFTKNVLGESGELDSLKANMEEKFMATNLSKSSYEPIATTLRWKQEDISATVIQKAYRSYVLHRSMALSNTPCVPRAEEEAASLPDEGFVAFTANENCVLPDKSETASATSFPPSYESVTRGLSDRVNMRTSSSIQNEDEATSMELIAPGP
Chain of human voltage-gated sodium channel Nav1.4 (human) (P35499 whole entry): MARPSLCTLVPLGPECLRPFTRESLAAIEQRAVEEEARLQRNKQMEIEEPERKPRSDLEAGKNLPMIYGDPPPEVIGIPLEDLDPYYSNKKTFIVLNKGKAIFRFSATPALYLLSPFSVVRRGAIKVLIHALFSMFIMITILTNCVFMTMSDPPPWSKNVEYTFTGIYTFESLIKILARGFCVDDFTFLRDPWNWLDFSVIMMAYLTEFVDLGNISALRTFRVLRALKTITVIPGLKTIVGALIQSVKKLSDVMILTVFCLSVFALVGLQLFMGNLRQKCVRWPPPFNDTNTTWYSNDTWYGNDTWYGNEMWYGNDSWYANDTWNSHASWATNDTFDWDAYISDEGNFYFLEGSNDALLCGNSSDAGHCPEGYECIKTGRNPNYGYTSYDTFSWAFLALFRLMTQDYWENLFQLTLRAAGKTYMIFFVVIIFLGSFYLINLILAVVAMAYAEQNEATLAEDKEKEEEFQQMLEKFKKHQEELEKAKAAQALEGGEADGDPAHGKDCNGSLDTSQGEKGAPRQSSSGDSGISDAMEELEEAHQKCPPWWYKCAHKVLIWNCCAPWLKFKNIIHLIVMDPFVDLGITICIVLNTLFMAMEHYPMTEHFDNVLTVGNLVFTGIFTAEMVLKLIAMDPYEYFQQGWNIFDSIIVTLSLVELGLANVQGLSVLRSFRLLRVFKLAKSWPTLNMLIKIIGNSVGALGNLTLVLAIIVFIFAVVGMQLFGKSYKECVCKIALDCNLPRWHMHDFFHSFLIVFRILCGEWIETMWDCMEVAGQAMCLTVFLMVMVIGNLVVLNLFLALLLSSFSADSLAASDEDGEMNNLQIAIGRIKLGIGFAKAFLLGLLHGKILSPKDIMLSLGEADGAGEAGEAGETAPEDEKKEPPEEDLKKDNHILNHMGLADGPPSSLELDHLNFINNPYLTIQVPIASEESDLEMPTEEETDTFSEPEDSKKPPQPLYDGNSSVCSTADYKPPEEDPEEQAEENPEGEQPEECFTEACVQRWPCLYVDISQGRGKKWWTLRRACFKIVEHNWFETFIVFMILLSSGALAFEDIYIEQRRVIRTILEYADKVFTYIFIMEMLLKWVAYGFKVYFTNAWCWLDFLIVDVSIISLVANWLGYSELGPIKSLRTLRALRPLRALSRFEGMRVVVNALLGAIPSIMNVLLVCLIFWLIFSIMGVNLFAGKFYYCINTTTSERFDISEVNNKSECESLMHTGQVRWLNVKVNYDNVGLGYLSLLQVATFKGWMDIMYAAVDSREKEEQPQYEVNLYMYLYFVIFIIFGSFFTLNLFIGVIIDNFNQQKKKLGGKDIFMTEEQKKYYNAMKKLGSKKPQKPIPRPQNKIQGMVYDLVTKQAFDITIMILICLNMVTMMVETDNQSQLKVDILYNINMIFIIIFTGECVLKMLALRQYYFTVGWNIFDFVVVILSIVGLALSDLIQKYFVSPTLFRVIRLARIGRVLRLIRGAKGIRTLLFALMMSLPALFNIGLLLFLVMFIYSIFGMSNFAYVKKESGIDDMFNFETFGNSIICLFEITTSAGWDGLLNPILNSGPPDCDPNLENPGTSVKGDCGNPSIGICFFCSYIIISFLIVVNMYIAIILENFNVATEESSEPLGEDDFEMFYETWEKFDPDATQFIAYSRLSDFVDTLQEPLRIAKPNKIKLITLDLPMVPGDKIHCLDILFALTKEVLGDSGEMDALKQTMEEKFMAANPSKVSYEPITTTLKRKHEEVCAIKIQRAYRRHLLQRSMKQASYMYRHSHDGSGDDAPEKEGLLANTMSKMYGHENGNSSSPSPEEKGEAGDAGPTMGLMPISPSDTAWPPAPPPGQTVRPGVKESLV

On to [Abu20]JzTx-V(1-29) (peptide), for which the IC50 (IonWorks Quattro) in assay [1] came to 900 nM; in assay [2], 970 nM; in [3] it was 50 nM; in assay [4], 10600 nM. For the same molecule, the Nav1.4/Nav1.7 (ratio of IC50s) in [1] is 19.

On to [Cpa20]JzTx-V(1-29) (peptide), for which the IC50 (IonWorks Quattro) in [1] is above 5000 nM; in assay [2], above 5000 nM; in assay [3], 210 nM; in assay [4] it was 14200 nM. Further, the Nav1.4/Nav1.7 (ratio of IC50s) in assay [1] is 24.

Regarding “CyA-[Nle6,Lys(Pra)14,Glu28]JzTx-V(1-29) (peptide)”, the fold loss of potency against JzTx-V on TTX-sensitive current, mouse DRG neurons in assay [5] turned out to be 3 fold.

Molecule Pra-[Nle6]JzTx-V(1-29) (peptide) came in with a fold potency over JzTx-V on TTX-sensitive current, mouse DRG neurons in assay [5] of 3 fold. Besides, in assay [3], the fold improvement in hNav1.7 potency over wild type JzTx-V, WCPC was found to be 190 fold and the fold potency against hNav1.7 over wild type JzTx-V(1-29), WCPC was determined as 200 fold.

Consider [Nle6]JzTx-V(1-29) (peptide), for which, in [3], the PX hNav1.7 Tonic IC50 worked out at 0.586 nM. Also, the IC50 (IonWorks Quattro) in assay [6], in assay [7], in assay [8] and in assay [9] was above 5000 nM throughout.

As to [Nva20]JzTx-V(1-29) (peptide), the IC50 (IonWorks Quattro) in [1] is 3100 nM; in assay [2], above 5000 nM; in [3] it was 170 nM; in assay [4], 10400 nM. The Nav1.4/Nav1.7 (ratio of IC50s) in assay [1] stood at 19.

In turn, GpTx-1 (peptide) had a Nav1.7 whole cell patch clamp [WCPC] IC50 in assay [3] of 3 nM.

Take “Atz(PEG11-benzylthioacetamide)-[Nle6]JzTx-V(1-29) (peptide)”: in [1], the Nav1.4/Nav1.7 came to 9 fold and the PX hNav1.4 Tonic IC50 came out at 13 nM. The same molecule gave a PX hNav1.7 Tonic IC50 in assay [3] of 1.4 nM. In assay [4], the Nav1.5/Nav1.7 turned out to be 1420 fold and the PX hNav1.5 Tonic IC50 is 1980 nM.

Regarding “Atz(NPEG10)-[Nle6]JzTx-V(1-29) (peptide)”, in [1], the Nav1.4/Nav1.7 came to 1 fold and the PX hNav1.4 Tonic IC50 amounted to 8 nM. The PX hNav1.7 Tonic IC50 in assay [3] turned out to be 6 nM. In assay [4], this molecule registered a Nav1.5/Nav1.7 of 629 fold and a PX hNav1.5 Tonic IC50 of 3770 nM.

The molecule [1-Nal7]JzTx-V(1-29) (peptide) returned a PX hNav1.4 Tonic IC50 in assay [1] of 0.9 nM. In assay [3], the PX hNav1.7 Tonic IC50 was found to be 0.4 nM. Also, the PX hNav1.5 Tonic IC50 in assay [4] is 1420 nM.

With [Cit20]JzTx-V(1-29) (peptide), the IC50 (IonWorks Quattro) was determined as 500 nM in [1], 350 nM in assay [2], 40 nM in assay [3] and 6800 nM in [4]. In addition, the Nav1.4/Nav1.7 (ratio of IC50s) in assay [1] worked out at 15.

JzTx-V(1-29) (peptide): the PX hNav1.4 Tonic IC50 in assay [1] was 3 nM and 2 nM. For the same molecule, the average IC50 against hNav1.4, PX assay format in assay [1] is 2 nM. Besides, the Mean IC50, fully non-inactivated (WCPC) in assay [10] was above 1000 nM; in assay [3], 0.141 nM; in assay [11] it was 75 nM; in [12], 810 nM; in assay [4], 882 nM. Moreover, the Mean IC50, partially inactivated (WCPC) was above 1000 nM in [10]; 0.162 nM in [3]; 18 nM in assay [11]; 530 nM in assay [12]; 426 nM in assay [4]. Moreover, the IC50 (IonWorks Quattro) in assay [3] is 20 nM; in [4], 7200 nM; in [6] it was 200 nM; in assay [8], 40 nM; in assay [9], above 7000 nM. In addition, the 1.x/1.7, fully non-inactivated in assay [11] worked out at 530 fold; in assay [12], 5720 fold; in [4], 6230 fold. The 1.x/1.7, partially inactivated was determined as 111 fold in assay [11], 3280 fold in assay [12] and 2640 fold in assay [4]. Further, the PX hNav1.5 Tonic IC50 in assay [4] was 2210 nM and 3250 nM and 1600 nM.

As to “[Phe6,Atz(2 kDa EtO-PEG*-{[Phe6,Atz13*]GpTx-1(1-34)})13]GpTx-1(1-34) (peptide)”, the Nav1.7 WCPC IC50 in assay [3] amounted to 0.58 nM.

Regarding “Bis-{Atz(PEG23*)-[Nle6]JzTx-V(1-29)}-5-((2-(benzylthio)acetamido)methyl)isophthalamide (peptide)”, the Nav1.4/Nav1.7 in assay [1] was 5 fold and 3 fold. Also, the PX hNav1.5 Tonic IC50 in [4] was 720 nM and 1180 nM.

Regarding JzTx-45 (peptide), the PX hNav1.4 Tonic IC50 in assay [1] came out at 321 nM. In [3], this molecule returned a PX hNav1.7 Tonic IC50 of 122 nM. This molecule came in with a PX hNav1.5 Tonic IC50 in assay [4] of 7460 nM.

As to YCQKWMWTCDSKRACCEGLRCKLWCRKII [JzTx-V(1-29)], in assay [13], the 50% inhibitory concentration (IC50) is 630 nM and 430 nM.
